In patent US6413935:
Non-standard residues stand in square brackets, D forms with d. No end group written: not given here. Cha = N[C@@H](CC1CCCCC1)C(=O)O; 14 = not defined here

Assays:
[1] = target: T1, HLA-DR7 (DRB1*0701), purified from cell line PITOUT (human); experiment: competition vs 125I-peptide, purified class II MHC
T1 chain 1: not shown
T1 chain 2: not shown

[2] = target: T2, HLA-DR4w4 (DRB1*0401), purified from cell line PREISS (human); experiment: competition vs 125I-peptide, purified class II MHC
T2 chain 1: not shown
T2 chain 2: not shown

[3] = target: T3, HLA-DR5 (DRB1*11011), purified from cell line SWEIG (human); experiment: competition vs 125I-peptide, purified class II MHC
T3 chain 1: not shown
T3 chain 2: not shown

[4] = target: T4, HLA-DR3 (DRB1*0301), purified from cell line MAT (human); experiment: competition vs 125I-peptide, purified class II MHC
T4 chain 1: not shown
T4 chain 2: not shown

[5] = target: T5, HLA-DR3 (DRB1*0301), purified from MAT cells (human); experiment: 125I-peptide inhibition, purified class II
T5 chain 1: not shown
T5 chain 2: not shown

[6] = target: T6, HLA-DRw53 (DRB4*0101), purified from L257.6 transfected fibroblasts (human); experiment: 125I-peptide inhibition, purified class II
T6 chain 1: not shown
T6 chain 2: not shown

[7] = target: mouse class II IE^k, purified from CH12 cells (mouse); experiment: 125I-peptide inhibition, purified class II
[8] = target: T7, HLA-DR5 (DRB1*11011), purified from SWEIG cells (human); experiment: 125I-peptide inhibition, purified class II
T7 chain 1: not shown
T7 chain 2: not shown

[9] = target: T8, HLA-DR4w4 (DRB1*0401), purified from PREISS cells (human); experiment: 125I-peptide inhibition, purified class II
T8 chain 1: not shown
T8 chain 2: not shown

[10] = target: mouse class II IA^s, purified from LS102.9 cells (mouse); experiment: 125I-peptide inhibition, purified class II
[11] = target: T9, mouse class II IA^b, purified from DB27.4 cells (mouse), P14434; experiment: 125I-peptide inhibition, purified class II
T9 chain 1: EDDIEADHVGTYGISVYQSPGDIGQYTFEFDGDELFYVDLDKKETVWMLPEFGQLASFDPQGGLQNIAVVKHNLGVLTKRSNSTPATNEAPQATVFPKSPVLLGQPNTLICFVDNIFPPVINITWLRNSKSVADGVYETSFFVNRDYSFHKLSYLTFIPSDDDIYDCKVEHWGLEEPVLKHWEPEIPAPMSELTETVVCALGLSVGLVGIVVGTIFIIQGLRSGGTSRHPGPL
T9 chain 2: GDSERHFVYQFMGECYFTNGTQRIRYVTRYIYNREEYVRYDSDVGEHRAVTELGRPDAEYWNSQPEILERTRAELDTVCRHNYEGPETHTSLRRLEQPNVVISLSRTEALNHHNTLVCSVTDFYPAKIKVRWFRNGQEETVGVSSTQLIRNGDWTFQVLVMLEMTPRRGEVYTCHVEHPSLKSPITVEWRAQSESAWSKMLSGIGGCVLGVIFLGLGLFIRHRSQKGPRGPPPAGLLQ

[12] = target: mouse class II IE^d, purified from A20 cells (mouse); experiment: 125I-peptide inhibition, purified class II
[13] = target: T10, mouse class II IA^k, purified from CH12 cells (mouse), P01910; experiment: 125I-peptide inhibition, purified class II
T10 chain 1: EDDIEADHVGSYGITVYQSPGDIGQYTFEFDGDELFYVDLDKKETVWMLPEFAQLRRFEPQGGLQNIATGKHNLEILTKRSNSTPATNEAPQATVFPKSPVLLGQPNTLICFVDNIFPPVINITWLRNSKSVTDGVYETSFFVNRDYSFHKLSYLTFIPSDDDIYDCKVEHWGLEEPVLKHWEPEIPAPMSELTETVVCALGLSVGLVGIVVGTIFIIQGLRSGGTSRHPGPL
T10 chain 2: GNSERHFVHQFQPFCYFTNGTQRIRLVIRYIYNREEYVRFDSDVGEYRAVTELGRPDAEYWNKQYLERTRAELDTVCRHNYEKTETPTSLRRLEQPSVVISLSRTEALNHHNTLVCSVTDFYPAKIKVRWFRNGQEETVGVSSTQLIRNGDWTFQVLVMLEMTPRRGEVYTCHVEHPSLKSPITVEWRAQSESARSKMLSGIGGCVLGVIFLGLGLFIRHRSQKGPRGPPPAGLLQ

[14] = target: T11, HLA-DR7 (DRB1*0701), purified from PITOUT cells (human); experiment: 125I-peptide inhibition, purified class II
T11 chain 1: not shown
T11 chain 2: not shown

[15] = target: HLA-DR1 (DRB1*0101), purified from LG2 cells (human); experiment: 125I-peptide inhibition, purified class II

## [dA]K[14]VYAWTLKAA[dA]-NH2 (reading uncertain; also: printed as aK(14)VYAWTLKAAa-NH2) [peptide 965.052, aK(14)…a-NH2]
[1]
  IC50: 25.5 nM
[2]
  IC50: 0.8 nM
[3]
  IC50: 6.9 nM

## [dA]K[14]VWANTLKAA[dA]-NH2 (reading uncertain; also: printed as aK(14)VWANTLKAAa-NH2) [peptide 965.032, aK(14)…a-NH2]
[2]
  IC50: 0.7 nM
[3]
  IC50: 2.9 nM
[4]
  IC50: 849 nM

## [dA]K[14]VKANTLKAA[dA]-NH2 (reading uncertain; also: printed as aK(14)VKANTLKAAa-NH2) [peptide 965.012, aK(14)…a-NH2]
[2]
  IC50: 2.1 nM
[3]
  IC50: 2.2 nM
[4]
  IC50: 4590 nM

B1: 906.04 (peptide)
peptide: [dA]V[Cha]AAAATLKAA[dA]-NH2
modifications: N-terminus assumed
SMILES: CC(C)C[C@H](NC(=O)[C@@H](NC(=O)[C@H](C)NC(=O)[C@H](C)NC(=O)[C@H](C)NC(=O)[C@H](C)NC(=O)[C@H](CC1CCCCC1)NC(=O)[C@@H](NC(=O)[C@@H](C)N)C(C)C)[C@@H](C)O)C(=O)N[C@@H](CCCCN)C(=O)N[C@@H](C)C(=O)N[C@@H](C)C(=O)N[C@H](C)C(N)=O
[5]
  fold increase in reactivity vs 760.57: 3 fold
[6]
  fold increase in reactivity vs 760.57: 30 to 100 fold

## [dA]K[14]VKAWTLKAA[dA]-NH2 (reading uncertain; also: printed as aK(14)VKAWTLKAAa-NH2) [peptide 965.022, aK(14)…a-NH2]
[2]
  IC50: 0.8 nM
[3]
  IC50: 1.1 nM

## AKFVAAWTLKAAA (modifications not checked) [1024.03]
[7]
  IC50: 3500 nM
[8]
  IC50: 18 nM
[9]
  IC50: 2 nM

## [dA]K[14]VYAWTLKAA[dA]-NH2 (reading uncertain; also: printed as aK(14)VYAWTLKAAa-NH2) [peptide 965.051, aK(14)…a-NH2]
[1]
  IC50: 833 nM
[2]
  IC50: 0.3 nM
[3]
  IC50: 5.7 nM

## [dA]K[14]VKANTLKAA[dA]-NH2 (reading uncertain; also: printed as aK(14)VKANTLKAAa-NH2) [peptide 965.011, aK(14)…a-NH2]
[3]
  IC50: 11.8 nM
[4]
  IC50: 592 nM

## HSLGKWLGHPDKF (modifications not checked) [PLP 139-151]
[10]
  IC50: 86 nM

## [dA]A[Cha]AAEATLKAA[dA]-NH2 [906.19]
[5]
  IC50: 1500 nM

## [dA]K[14]VWANTLKAA[dA]-NH2 (reading uncertain; also: printed as aK(14)VWANTLKAAa-NH2) [peptide 965.031, aK(14)…a-NH2]
[2]
  IC50: 2.1 nM
[3]
  IC50: 8.3 nM

## NTDGSTDYGILQINSR (modifications not checked) [HEL46-61]
[11]
  IC50: 7000 nM
[12]
  IC50: 8500 nM
[13]
  IC50: 20 nM

B2: 906.17 (peptide)
peptide: [dA]A[Cha]AFAATLKAA[dA]-NH2
modifications: N-terminus assumed
SMILES: CC(C)C[C@H](NC(=O)[C@@H](NC(=O)[C@H](C)NC(=O)[C@H](C)NC(=O)[C@H](Cc1ccccc1)NC(=O)[C@H](C)NC(=O)[C@H](CC1CCCCC1)NC(=O)[C@H](C)NC(=O)[C@@H](C)N)[C@@H](C)O)C(=O)N[C@@H](CCCCN)C(=O)N[C@@H](C)C(=O)N[C@@H](C)C(=O)N[C@H](C)C(N)=O
[5]
  fold increase in binding vs 760.57: 2 to 4 fold
[6]
  fold increase in reactivity vs 760.57: 100 fold

B3: 906.20 (peptide)
peptide: [dA]A[Cha]AAQATLKAA[dA]-NH2
modifications: N-terminus assumed
SMILES: CC(C)C[C@H](NC(=O)[C@@H](NC(=O)[C@H](C)NC(=O)[C@H](CCC(N)=O)NC(=O)[C@H](C)NC(=O)[C@H](C)NC(=O)[C@H](CC1CCCCC1)NC(=O)[C@H](C)NC(=O)[C@@H](C)N)[C@@H](C)O)C(=O)N[C@@H](CCCCN)C(=O)N[C@@H](C)C(=O)N[C@@H](C)C(=O)N[C@H](C)C(N)=O
[14]
  fold reduction of binding vs 760.57: 30 fold

B4: 906.30 (peptide)
peptide: [dA]A[Cha]AAAATEKAA[dA]-NH2
modifications: N-terminus assumed
SMILES: C[C@H](NC(=O)[C@H](C)NC(=O)[C@H](C)NC(=O)[C@H](CC1CCCCC1)NC(=O)[C@H](C)NC(=O)[C@@H](C)N)C(=O)N[C@@H](C)C(=O)N[C@H](C(=O)N[C@@H](CCC(=O)O)C(=O)N[C@@H](CCCCN)C(=O)N[C@@H](C)C(=O)N[C@@H](C)C(=O)N[C@H](C)C(N)=O)[C@@H](C)O
[14]
  fold loss of binding reactivity vs 760.57: 10 fold
[15]
  fold loss of binding reactivity vs 760.57: 8 fold
[8]
  fold loss of binding reactivity vs 760.57: 10 fold
[9]
  fold loss of binding reactivity vs 760.57: 7 fold

## [dA]A[Cha]AAAKTAAAA[dA] [760.50]
[11]
  IC50: 200 nM
[8]
  IC50: 6.1 nM

## [dA]A[Cha]AAAATLKAA[dA] [760.57]
[14]
  IC50: 78 nM
[6]
  IC50: 3300 nM
[10]
  IC50: 120 nM
[7]
  IC50: 78 nM
[15]
  IC50: 4.5 nM
[9]
  IC50: 2 nM
[13]
  IC50: 5260 nM

B5: 906.16 (peptide)
peptide: [dA]A[Cha]AVAATLKAA[dA]-NH2
modifications: N-terminus assumed
SMILES: CC(C)C[C@H](NC(=O)[C@@H](NC(=O)[C@H](C)NC(=O)[C@H](C)NC(=O)[C@@H](NC(=O)[C@H](C)NC(=O)[C@H](CC1CCCCC1)NC(=O)[C@H](C)NC(=O)[C@@H](C)N)C(C)C)[C@@H](C)O)C(=O)N[C@@H](CCCCN)C(=O)N[C@@H](C)C(=O)N[C@@H](C)C(=O)N[C@H](C)C(N)=O
[5]
  fold increase in binding vs 760.57: 2 to 4 fold
[6]
  fold increase in reactivity vs 760.57: 100 fold

B6: 906.18 (peptide)
peptide: [dA]A[Cha]AAKATLKAA[dA]-NH2
modifications: N-terminus assumed
SMILES: CC(C)C[C@H](NC(=O)[C@@H](NC(=O)[C@H](C)NC(=O)[C@H](CCCCN)NC(=O)[C@H](C)NC(=O)[C@H](C)NC(=O)[C@H](CC1CCCCC1)NC(=O)[C@H](C)NC(=O)[C@@H](C)N)[C@@H](C)O)C(=O)N[C@@H](CCCCN)C(=O)N[C@@H](C)C(=O)N[C@@H](C)C(=O)N[C@H](C)C(N)=O
[15]
  fold decrease of binding activity vs 760.57: 8 fold

B7: 906.50 (peptide)
peptide: [dA]A[Cha]AAAATLKAF[dA]-NH2
modifications: N-terminus assumed
SMILES: CC(C)C[C@H](NC(=O)[C@@H](NC(=O)[C@H](C)NC(=O)[C@H](C)NC(=O)[C@H](C)NC(=O)[C@H](C)NC(=O)[C@H](CC1CCCCC1)NC(=O)[C@H](C)NC(=O)[C@@H](C)N)[C@@H](C)O)C(=O)N[C@@H](CCCCN)C(=O)N[C@@H](C)C(=O)N[C@@H](Cc1ccccc1)C(=O)N[C@H](C)C(N)=O
[5]
  fold increase in reactivity vs 760.57: 8 fold
[6]
  fold increase in reactivity vs 760.57: 40 fold
